Reference: the nanobody polyreactivity screen of Harvey et al. (2022)

Assay: yeast display, Sf9 membrane polyspecificity reagent, FACS + sequencing; frameworks hold sequencing errors
Summary of the method: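 Sorting gates, low and high (top ~1%), were placed on anti-HA fluorescence to track expression and on streptavidin fluorescence to track reagent binding. A clone's polyreactivity label is taken from the gate it came out of. The reagent was 10% biotinylated, detergent-solubilized Sf9 membrane, applied for 1 hour at 4 °C to galactose-induced yeast display cells.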

Sequence	polyreactivity (PSR sort gate)
QVQLVESGGGLVHAGGSLRLSCAAYGSIFNYYAMGWYRQAPGKERVFVADISGSGSSTYYADSVKGRFTISRDNAKNTFYLQKNSLKPEDTAVYYCNAEYYWGVGYYPYSDYGYWGQGTQVTVSS	low polyreactivity
QVQLVESGGGLVHAGGSLRLSCASSGFTYSQYVMGWYRQAPGKERELVASITGNGGSTRYADSVKGRFTISRDNANKTVYLQMNCLKPEDTAVYYCDTRVKFSTSYWLYYWGQGTQVTVSS	high polyreactivity
QVQLVESGGGLVHAGGSLRLSCASSGRTFAYSAMGWYRQAPGIERELVATITSAGSTNYADSVKGRFTISRDNAKNTVYLQMNSLKPEDTAVYYCNRRVWGSSRLKYNYWGQGTQVTVSS	high polyreactivity
QVQLVESGGGLVHAGGSLRLSCASSGSTFAQYALGWYRPAPGKDREFVAAITRGGGRTYYADSVNGRFTISRDNAKYSVYLQMNSLKPEVTAVYYCNAVYRYYPFDYWGQGTQVTVSS	high polyreactivity
QVQLVESGGGLVHAGGSLRLSCASSGSTFVLYAMGWYRQAPGKERELVAVISWSGGSTYYADSVKGRFTISRDNAKNTVYLQLYSLKPEDTAVYYCAKRYRVSYYPYADPYGYWGQGTQVNVSS	low polyreactivity
QVQLVESGGGLVHAGGSLRLSCSASGSTFGPYAMGWYRQAPGKERELVAAISSRGARTYYADSVKGRFTISRDNAKNTVYLQMNSLKPEDTAVYYCANTYHGTAYDYWGQGTQVTVSS	high polyreactivity
QVQLVESGGGLVHAGGSLRLTCAASGSISSFYAMGWYRQEPGKERELVAGITSGGSTNYADSVKGRFTISRDNAKNTVYLQMNSLKAEDTAVYYCAAVYKCAGTHFDVFVKEFDYWGQGTQVTVSS	low polyreactivity
QVQLVESGGGLVHEGGSLRLIFAASGRIFGPNHMGWYRQAPGKERELVAAITDSCDITYYADSVKGRFTISRDNAKNTVYLQMNSLKPQDTAVYYCAADHTYENEYWGQGTQVNVSS	low polyreactivity
QVQLVESGGGLVHSGGSLRLSCAASGSIFDYYAMGLYRQAPGKERELVAAISWRGGTTYYADSVKGRFTISRDNANNTVFLQMNRLKPEYTAVYYCNADKRFRRYDYWGQGNQVTVSS	high polyreactivity
QVQLVESGGGLVKAGGSLRLRGAASGSIFGRYAMGWYRQAPGKERELVAAISKNGGSTYYADSVKGRFTISRDNAKNTVYLQMNILKPEDTAVYYCNTVRYSGNYRDQEGDYWGQGTQVTVSS	high polyreactivity
QVQLVESGGGLVKAGGSLRLSCAASGFIFRTYAMGWYRQAPRKERELVAAITGRGGTTYYADSVKGRFTISRDHAKNTVYLQMNSLKAEDTAVYYCADRSRDYNYNPYDYWGLGTQVTVSS	high polyreactivity
QVQLVESGGGLVKAGGSLRLSCAASGIIFSFYTMGWYRQAPGKQRELVAAITWSGGSTYYADSVKGRFTISRDNAKNTVYLQMNSLKPEDTAVYFCNARYPWRKRSQGYSWGQGTQVTVSS	low polyreactivity
QVQLVESGGGLVKAGGSLRLSCAASGITFLYYAMACYRQAPGKERELVAAISTSGGSTYYSDSVKGRFTISRDNAKNTVYLQMNSLKPEDTAVYYCAKSVGVGGEDRVGSWGQGTQVTVSS	low polyreactivity
QVQLVESGGGLVKAGGSLRLSCAASGLTLPANAMGWYRQAPGKEREFVAAISVGGDTTSYADSVKGRFTISRDNAKNTVYLQMNSLKPEDTAVYYCAADEIHDPRTYRGSAGDYWGQGTQVTVSS	low polyreactivity
QVQLVESGGGLVKAGGSLRLSCAASGRIFNWYAMGWYRQAPGKEREFVAAITFSGGSTYYADSVKGRFTISRDNAKNTVYLQMNSLKPEDTAVYYCAAEIYFFVSYDYWGQGTQVTVSS	low polyreactivity
QVQLVESGGGLVKAGGSLRLSCAASGRIFVFNAMGWYRQAPGKERELVAAITSAGSTYYADSVKGRFTISRDNAKNTVYLQMNSLIPEDTAVYYCAAGSRRYRDDYWGQGTQVNVSS	low polyreactivity
QVQLVESGGGLVKAGGSLRLSCAASGRTFALYAMGWYRLAPGKERELVAGITFRGGSTYYADSVKGRFRISRDNAKNTVYLQMNSLKPEDTAVYYCAAERWRWYYSWTMDYWGQGTQVTVSS	high polyreactivity
QVQLVESGGGLVKAGGSLRLSCAASGRTFRYNAMGWYRQPPGKERELVAVINSNGGSTYYADSVKGRFTISRDNAKNTVYLQMNSLKPEDTAVYYCAADYIRIQEYDYWGQGTQVTVSS	low polyreactivity
QVQLVESGGGLVKAGGSLRLSCAASGSIFPFYAMGSYRQAPGKERELVATISWSGGRTYYADSVKGRFTISRDNAKNTVYLQMNSLKPEDTAVYYCAAGSYHYPNAYYYWGQGTQVTVSS	high polyreactivity
QVQLVESGGGLVKAGGSLRLSCAASGSIFRYYAMGWYRQAPGKERELVASITNGGSTNYADSVKGRFTISRDNAKNTVYLQMNSLKPEDTAVYYCAARYLYYTPPPRRYYYWAQGTQVTVSS	high polyreactivity
QVQLVESGGGLVKAGGSLRLSCAASGSSLRYNAMGWYRQAPGKERELVAAISWGGGRTHYADSVKGRFTISRDNAKNSVYLQMNSLKPEDTAVYYCNGVSVRYLYYYWGQGTQVTVSS	high polyreactivity

Sequence	polyreactivity (PSR sort gate)
QVQLVESGGGLVKAGGSLRLSCAASGSTFSRNTMGWYRQAPGKERELVAAITKSAVSTYYADTVTGRFTISRDNAKNTDYLEMNSLKPEDTAVYYSAKVYRTSTSKAYDYWGQGTKVTVSS	high polyreactivity
QVQLVESGGGLVKAGGSLRLSCAASGSTFSRYAKGWYRQAPGKEREFVAAISKSGGGTYYADSVKGRFTISRDNAKNTVYLQMNSMKPEETAVYYCARRVRYKHYDYWGQGSQVTVSS	high polyreactivity
QVQLVESGGGLVKAGGSLRLSCAASGSTLDPNVMGWYRQAPGKERELVAAITSGGSTYYADSVKGRFTISRDNAKNTVYLQMNSLKPEDTAVYYCAADSHGHVFYSWYDYWGQGTQVTVSS	low polyreactivity
QVQLVESGGGLVKAGGSLRLSCAAYGFTIVYYAMGWYIQEHGKERELVAAISATGGRTYYADSVKGRFTISRDNAKNTVYLQMNSLKPEDTAVYYCATRRRVLYGYDYWGQGTQVTVSS	high polyreactivity
QVQLVESGGGLVKAGGSLRLSCCASGFTFTGYAMGWYRQAPGKEWELVAAITRGGGSTYYADSVKGRFTISRDNAKNTVYLQMNSLKREDTAVYYCAAQGSRLIRISSPYYGHDYWGQGTQVTVSS	low polyreactivity
QVQLVESGGGLVKEGGSLRLSCAASGSIFLQYAMGWYRQAPGKERELVAGISLRGCSTYYADSVKGRFTISRHNAKNTVYLQLNSLKPEDTAVYYCAADVIVTVETYTSGPSFTEYDYWGQGTQVTVSS	low polyreactivity
QVQLVESGGGLVLAGGILRLSCAASGSTFYAYAMGWYRQAPGKERELVAAIDSGGSTYYADSVKGRFTISRDNAKNTVYLQMNSLKPEDTAVYYCAVRHRYTRAYWGRDYWGQGSQVTVSS	low polyreactivity
QVQLVESGGGLVLAGGRLRLSCAASGFTFGPYAMGWSRQAPGKERELVAAISQSGGRTSYAVSVKGRFTISRDNGKNTVYLQMNSLKPEDTAVYYCAKRANGYRSIYRMDYWGQGTQVTVSS	high polyreactivity
QVQLVESGGGLVLAGGSLRLSCAASGFTFPHYAMGWYRQAPGKERELVAVISWSGSSTYYADSVKGRFTISRDNAKNTVYLQMNSLKPEDTAVYYCNTRKLYQVDYDYWGQGTQVTVSS	high polyreactivity
QVQLVESGGGLVLAGGSLRLSCAASGGIFYGYAMGWYREAPGKEREMVAAISSTGGRTYYADSVKGRFTISRDNAKNTVYLQMNSLKPEETAVYYCAAEDFTRQFEYWGQGTQVTVSS	low polyreactivity
QVQLVESGGGLVLAGGSLRLSCAASGHIFFYYTMGWYRQSPGKERELVAGITIGGSTNYADSVKGLFTISRDNAKNTVYLQMISLKPEDTAVYYCNVVKYVYIYSYWEYYYWGQGTQVTVSS	low polyreactivity
QVQLVESGGGLVLAGGSLRLSCAASGRSSSSYAMGWYRQAPGKEREFVAAIRSSGGSTSYADSVKGRFTISRDNAKNTVYLQMNSLKPEDTAVYYCAVRKHFVVSYDYWGQGTQVTVSS	high polyreactivity
QVQLVESGGGLVLAGGSLRLSCAASGSIFSLYAMGWYRQAPGKEREVVAALSRGGSTNYADSVKGRFTISRDTAKNTVYLQMNCLKPEDTAVYYSNAGFGVRRKHITVYTWYDYWGQGTQVTVSS	low polyreactivity
QVQLVESGGGLVLAGGSLRLSCAASGSNFSPNAMGWYRKAPGKERELVAAITYRGANTYYADSVKGRFTISRDYAKNTVYFLMNSLKPEDTAVYFCAAEYAYHHVGFGYWGQGTQVTVSS	low polyreactivity
QVQLVESGGGLVLAGGSLRLSCAASGSTFGRYAMGWSRQAPGKERELVAAISRGTTTNYADSVKGRFTIARDNAKNTVYLQMNSLKPEETAVYYCAADQPSKRYYYWGQGTQVTVSS	low polyreactivity
QVQLVESGGGLVLAGGSLRLSCAASGSTFIWNAMGWYRQAPGKERELVAAIRRGSSTNYADSVKGRFTISRDNAKNTVYLQMNSLKPEDTAVYYCAKKQVTTDVSSETFVLEMDYWGQGTQVTVSS	low polyreactivity
QVQLVESGGGLVLAGGSLRLSCPASGFTFRYYAMGWSRQAPGKDRELVAAISVSGGSTYYADSVKGRFTISRDNAKNSVYLQMNILKPEDTAVYYCNARRNVGFGYWGQGTQVTVSS	high polyreactivity
QVQLVESGGGLVPAGGSLRLSCAASGFIYWYAMGWYRQAPGKETELVAAITWSGGSTYADSVKGRFTISRDNAKNTVYLQMNCLKPEDSAVYYCAADKYSQWSSHTRVRYDYWGQGTQETVSS	low polyreactivity
QVQLVESGGGLVPAGGSLRLSCAASGFTFEYYVIGWYRHAPGKERELVAAISSRGGSTYYADSVKGRFTISRDNAKNTVYLQMNSLKPDDTAVYYGATRDPYPRRREFEYWGQGTQVTVSS	low polyreactivity
QVQLVESGGGLVPAGGSLRLSCAASGFTFGVYAMGWYRQAPGKERELVAAITWSGGRTYYADSVKGRFTISRDNAKNSVYLQMNSLKPEDTAVYYCAAGFYRYNAVRYDYWGQGTQVTVSS	high polyreactivity
